From paper PMC6698653 come the findings set out here.

In data set [1] the target is T1, BmLARK (Bombyx mori (cDNA from Bm12 cells), UniProt Q5I7M6 1-343). As to the kind of experiment: EMSA. A general note: A gel shift assay detects complexes by their altered migration in electrophoresis.
Data set [2] has as its target T1, BmLARK. As to the kind of experiment: MST.
For a further data set, the target named is BmLARK ZnF (Bombyx mori, UniProt Q5I7M6 155-343). As to the kind of experiment: EMSA.
For the next data set, the target named is DmLARK (Drosophila melanogaster, UniProt Q94901 1-352). As to the kind of experiment: EMSA.
Chain of DmLARK (Q94901 whole entry): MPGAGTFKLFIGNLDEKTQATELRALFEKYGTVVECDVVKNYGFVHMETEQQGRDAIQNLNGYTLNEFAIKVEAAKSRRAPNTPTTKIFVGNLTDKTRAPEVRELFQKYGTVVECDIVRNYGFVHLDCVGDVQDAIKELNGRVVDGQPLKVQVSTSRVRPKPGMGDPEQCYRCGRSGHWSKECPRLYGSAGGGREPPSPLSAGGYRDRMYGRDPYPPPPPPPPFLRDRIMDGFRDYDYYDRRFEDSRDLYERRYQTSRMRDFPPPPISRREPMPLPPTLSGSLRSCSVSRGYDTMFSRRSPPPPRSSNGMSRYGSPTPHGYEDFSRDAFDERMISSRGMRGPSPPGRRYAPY
Another data set concerns the target T2, MmLARK (Mus musculus, UniProt Q8C7Q4 1-361).
T2 sequence: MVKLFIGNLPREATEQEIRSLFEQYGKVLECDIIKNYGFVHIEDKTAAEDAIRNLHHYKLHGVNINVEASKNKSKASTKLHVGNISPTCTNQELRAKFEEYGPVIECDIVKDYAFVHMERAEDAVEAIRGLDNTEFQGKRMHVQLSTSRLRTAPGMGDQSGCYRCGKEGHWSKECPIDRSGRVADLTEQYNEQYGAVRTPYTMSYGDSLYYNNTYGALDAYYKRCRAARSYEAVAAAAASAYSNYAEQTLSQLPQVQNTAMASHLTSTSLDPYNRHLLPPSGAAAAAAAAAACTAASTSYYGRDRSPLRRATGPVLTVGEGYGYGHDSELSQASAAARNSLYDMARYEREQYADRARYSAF
The data set is described as follows: EMSA.

The next data set addresses HsLARK (Homo sapiens, UniProt Q9BWF3 1-364). As to the kind of experiment: EMSA.

For GGTACTGTGATGCAAGTGCGGCAGTGAGCGCAGTGTGG (ssDNA) [558 ssDNA (mutant G4)], in the data set with BmLARK [1], the binding result was “no binding”. Turning to GCGAGGGCGGGGGAGAGGGGAGGGGCGCG (structured_DNA) [HIF-1a G4], the Kd (as a rule, a measure of binding affinity in units of concentration) with BmLARK [2] was determined as 131 nM. Regarding GGCAGTGTCAGTGAGACAGAGCAGTGTGTGCGG (ssDNA) [159 ssDNA (mutant G4)], the binding result with BmLARK [1] was “no binding”. In the case of CCAGTGCGGGGCGCGAGGGGGCCGAGGGGCGGGGCAACAA (structured_DNA) [BmPOUM2 G4], the binding result was “no binding” with BmLARK ZnF, “binds” with DmLARK, “binds” with MmLARK and “binds” with HsLARK. The same molecule showed a Kd with BmLARK [2] of 111 nM. TTATGGGGAGGGTGGGGAGGGTGGGGAAGG (structured_DNA) [c-MYC G4]: the binding result with MmLARK and with HsLARK was “binds” throughout. Moreover, the Kd in the data set with BmLARK [2] is 269 nM. In the case of TTTTTCGGGCGGGCGCGAGGGAGGGG (structured_DNA) [c-kit G4], the binding result with MmLARK and with HsLARK was “binds” each time. In the data set with BmLARK [2], the Kd is 126 nM. In turn, GGCGGGGGCGGGGGGACGGGGCGGGGGGGGCGG (structured_DNA) [159 G4] registered a Kd with BmLARK [2] of 114 nM.

With CCAGTGCGATGCGCGAGTGAGCCGAGTAGCAGTGCAACAA (ssDNA) [BmPOUM2 ssDNA (mutant G4)], the binding result with BmLARK [1] was “no binding”.

As for GGTACGGGGGTGCAGGGGCGGCGGGGGGCGCGGGGTGG (structured_DNA) [558 G4], the affinity in the data set with BmLARK [2], expressed as Kd, was 120 nM. As for GTGTCGCAGTGCCACAGTGTGCTGAGCAGTGTCCGCG (ssDNA) [142 ssDNA (mutant G4)], the binding result with BmLARK [1] is “no binding”. For the molecule GGGTCGCGGGGCCACGGGGGGCGGGGCGGGGGCCGCG (structured_DNA) [142 G4], binding in the data set with BmLARK [2] was put at a Kd of 107 nM.
